According to the nanobody polyreactivity screen of Harvey et al. (2022):

test: yeast display, Sf9 membrane polyspecificity reagent, FACS + sequencing; frameworks hold sequencing errors
Outline: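 After 36–48 hours of galactose induction, yeast (Saccharomyces cerevisiae BJ5465) displaying a synthetic nanobody library were stained at 4 °C for 1 hour with 10% biotinylated, detergent-solubilized Sf9 membrane reagent. Streptavidin microbeads enriched the stained cells before FACS sorting into low and high (top ~1%) gates on anti-HA and streptavidin fluorescence. Each clone's polyreactivity label reflects its gate of origin.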

Row | Sequence | polyreactivity (PSR sort gate)
1 | QVQLEESGGGLVQAGGSLSLSCAASGSTFDNYAMGWYRKAPGKERELVADITWSGGSTYYADSVKGRFTISRDNAQNSVYLQMNSLKAEDTAVYYCNTAGYYTKYDYWGQGTQVTVSS | low polyreactivity
2 | QVQLEESGGGLVQAGVSLRLSCAASGSTFSLYAMGWYRPAPGKERELVAAISSGGRTNYADSVKGRFTISRDNAKKTVYLQMNSLKPEDTAVYYCAARIQWPTWSLYYYWGQGTQVTVSS | high polyreactivity
3 | QVQLEESGGGLVQEGGSLRLSCADSGFTLWLNAMGWYRQAPGKERELVAAITTSDDGTYYADSVKGRFTISRDNAKNSVYLQMNSMKPEDTAVYYCAADYYSVLYDYWVQGTQVTVSS | low polyreactivity
4 | QVQLEESGGGLVQGGGSLRLSCAASGSNFQDNAMGWYRQAPGKERELVAAITGRDASTYYADSVKGRFTISRDNAKNTVYLQLNCLKPEDTAVDYCYWGQGTQVTVSS | low polyreactivity
5 | QVQLEESGGRLVQAGGSLRLSCAASGRTFGPYGMGWYRQAPGKESELDAAINGNGDSTYYADSVKGRFTISRDNAKNTVYLQMNSLKPEDTAVYYCASEGWPDYTSRLYDYWGQGTQVTVSS | low polyreactivity
6 | QVQLEESGGRLVQAGGSLRLSCAASGSIFALYAMGWYRQAPGKERELVAAIDWSDGGTYYADSVKGRFTISRDNAKNTLYLQMNSLKPEDTAVYYCNRVYSTSRITQYEFDYWGQGTQVTVSS | low polyreactivity
7 | QVQLEESGGRLVQEGGSLRLSCAASGSTFITNAMGWYRQAPGKEWELVAAITYSTGGTYYEDSVKGRFTISRDNAKNTVYLQMYSLKPEDTAVYYCAALLYFFLYDYWGQGTQVTVSS | low polyreactivity
8 | QVQLEESGRGLVQAGGSLRLSCAASGFTFSLYAMGWYRQAPGKERELVAAISSRSGSTFYADSVKGRFTISRDNAKNTVYLQMNSLKPEDTAVYYCAARRDWLGGYWGQGTQVTVSS | high polyreactivity
9 | QVQLEESGRGLVQAGGSLRLSCAASGRTFLQYAMGWYRQAPRKERELVAANTTSGGDTYYADSVKGRFTISRDNAKNTVYLQMNSLKPEDTAVYYCNADFRVYIPHVPYFVDFDYWGQGTQVTVSS | low polyreactivity
10 | QVQLEESGVCLVQAGGSLRLSCAASGYIFISYARGWYREAPGKEREFVAAITGDGGSTYADSEKGRFTISRDNAKNTVYLLMNSLKPEDTAVYYCAVDGYGGEADYEFDHWGQGTQVNVSS | low polyreactivity
11 | QVQLEESGVGLVQAGGSLRLSCAASGFTFYYNAMGWYRQAPGKERELVAGITWSGGSTYYADSVKGRFTISRDNAKNTVYLQMNSLKPEDTAVYYFAKDHQDSDYDYWGQGTQVTVSS | high polyreactivity
12 | QVQLEESGVGLVQAGGSLRLSCPASGRIIYRNAIVWYSQAPGKERELVAAITGSGGITYYADSVKGRFTISRDNAKNTVYLLMNSLKPEVTAVYYCAARAKFLSVPTYDNWGQGTQVTVSS | high polyreactivity
13 | QVQLEESRGGLVQAGGSLRLSCAASGYTLYEYAMGWYRQAPGKERELDAAITRSGGSTYYADSVKGRFTISRDNAKNTVYLQMNSLKPEDTAVFYCNADIYSRHTVGGYYYWGQGTQVTVSS | high polyreactivity
14 | QVQLEESVGGLVQAGGSLRLSCAASGFTFHRYAMGWYTQAPGKERELVAGITRRSGSTFYADSVQGRFTISRDNAKNTVFLQMNSLKPEDTAVYYCAATVPGLHWIYDYWGQGTQVTVSS | high polyreactivity
15 | QVQLEESVGGLVQAGGSLRLSCAASGRIFTIYAMVSYRQAPGKERELVAAISDRGTRTYYADSVKGRFTISRDNAKNTVYLQMNSLKPDDTAVYYCATDALYTYGYDYWGQGTQVTVSS | low polyreactivity
16 | QVQLEESWGGLVQAGGSHRLICAASGSTIGYYAMGWYRQAPWKEREFVASITWGGASTDYADSVKGRFTISRDNAKNSVYLQMNSMKPEDTAVYYCAKDNWDNPRPTSEMDYWGQGTQVTVSS | low polyreactivity
17 | QVQLEETRGGLVQAGGSLRLSCAASGSIFPYYALGWYRQAAGKERELVASINQTDGTTYYADSVKGRFTISRDNAKNNVYLQMNSLKPDDTAFYYCPADTTLQAFIPYRPIGSYDSWGQGTQVTVSS | low polyreactivity
18 | QVQLEVSGGGLVQAGGSLLLSCAASGFTFYFYAMGWSRQATGTERELVAAISRSGSRTYYADSVKGRFTISRDNAKNTVYLQMNSLKPEDTAVYYCARVRPRGLYFVLHYDYWGQGTHVTVSS | high polyreactivity
19 | QVQLGDSGGGLGQAGGSLRLSCAASGSTFASDTMGWYRQEPGKERYLVATISRPGGTTNYADSVKGRFTISRDNAKNTVYLQMNSLKPEDTAVFDCARRYPRYDFAYGYDYWGQGTQGTVSS | high polyreactivity
20 | QVQLGESGAGIVQAGGSLRLSCAASGSTFQTYAMGWYRQAPGKERELVAAITWRGGSTYYAHSVKGRFTISRDNAKNTVYLQMNSLKPEDTAVYYCAAKWLGAHDHRAAYDSWGQGTQVTVSS | low polyreactivity
21 | QVQLGESGGGLLQAGGSVRLSCAASGRTITANAMGLYRQAPGKERELFATISTRGGRTYYADSVKGRFTISRDNSKNTVYLQMHSLKPEETAVFYGAFTIRAKYTLKEDYWGQGTQVTVSS | low polyreactivity
22 | QVQLGESGGGLVQAGGRLRLSCAASGYTFGYYTMGWYRQAPGKERELVASIDSGGGTNYADSVKGRFTISRDNAKNTVYLQMNSVKAEDTAVYYCAAESPLYWVDDFESGWRYYYWGQGTQVTVSS | low polyreactivity

Row | Sequence | polyreactivity (PSR sort gate)
23 | QVQLGESGGGLVQAGGSHRLICAATASTLGGYAMGWYRQAPGTERELVAAITRSGGSTYYADSVKGRFTISRDNAKNTVYLQMNSLKPEDTSVNYCGADRYSYFNIGYDYWGQGTQVTVSS | low polyreactivity
24 | QVQLGESGGGLVQAGGSLGLSCAASGLTFIVYAMGWYRQAPGKERELVADITWSGGSTYYADSVKGRFTISRDNAKNTVYLQMNSLKPEDTAVYYCNRQSGNIMDYWGQGTQVTVSS | low polyreactivity
25 | QVQLGESGGGLVQAGGSLRLRCAASGRIFNGYTMGWYRQAPGKERELVAAISRGGSTYYADSVKGRLTISRDNAKNTVYLLMNSLKPEDTAVYYCAASHRFGYEYWGHGTQVTVSS | high polyreactivity
26 | QVQLGESGGGLVQAGGSLRLSCAAAGFIFRPYAMGWYRQAPGKERELVAVISNSGGSSNYADSVKGRFSISRENAKNTVYLQMNSLKPEDTAVDYCNALVYVPHWWTYYDWGQGTQVTVSS | high polyreactivity
27 | QVQLGESGGGLVQAGGSLRLSCAACGSIFKPYAMGWYRQAPGTERELVAAISGIGGSTYYADSVKGRFTISRDTAKNTVYLQMNSLTPEDTAVYYCAADTFFKIFSEYNYWGQGTQVTLSS | high polyreactivity
28 | QVQLGESGGGLVQAGGSLRLSCAASGFIFGYYAMGWYRQAPGKERELVAAINYNDDSTYYADSVKGRFTISRDNAKNTVYLQMNSLKPEDTAVYYCAAGVWYGYYVSIYLDYDYWGQGTQVTLSS | low polyreactivity
29 | QVQLGESGGGLVQAGGSLRLSCAASGGIFIGNAMGWYRQAPGKERELVAAISFSGGSTYYADSVKGRFTISRDNAKNTVYLQMNSLKPEDTAVYYCARRIGHGSRPYWLETWRYPYDYWGQGTQVTVSS | low polyreactivity
30 | QVQLGESGGGLVQAGGSLRLSCAASGGILGYNAMGWYRQAPGKERELVATINWSGGSTYADSVKGRFTISRDNAKNTVYLQRNSLKPEDTADSYCNAVRKYWRQGTQVTVSS | low polyreactivity
31 | QVQLGESGGGLVQAGGSLRLSCAASGIIFGYYAMGWYRQAPGKERELVAAITWSGGSTYYADSVKGRFTISRDNAKYTVYLQMNSLKPEDTAVYYCAASAYVQPYDYWGQGTQVTVSS | high polyreactivity
32 | QVQLGESGGGLVQAGGSLRLSCAASGITFNGYAMGWSRQAPGKERQLVASAIRGTSGSTYYADSVKGRFTISRDNAKNTDYLQMNSLKPEDTTVYYCNADIVIQGVIYYYRNFEYWGQGTQVTVSS | low polyreactivity
33 | QVQLGESGGGLVQAGGSLRLSCAASGLTFYLYAMGWYRQAPGKERELVAAITTSGGSTYYADSVKGRFTISRDTAKNTVYLQMNSLKPEDTAVYYCATQGALRGYGYWGQGTQVTVSS | high polyreactivity
34 | QVQLGESGGGLVQAGGSLRLSCAASGLTFYLYVMGWYRQAPGTERELVAAISRRGGSTYYADSVKGRFTISRDNAKNTVYLQMNSLNPEDTAVYYCAASVYGTYRGIQYGYWGQGTQVTVSS | high polyreactivity
35 | QVQLGESGGGLVQAGGSLRLSCAASGRIFQHNTMGWYRQAPGKEREFVAAIRRSGGSTYYADSVKGRFTISRDNAKNTVYLQMNSLKPEDTAVYYCAARDYPTGTRRWGGGDSWGQGTQVTLSS | low polyreactivity
36 | QVQLGESGGGLVQAGGSLRLSCAASGRIFRTNAMGWYRQAPGKERELVAAITFSGGGTYYADSVKGRFTISRDNAKNTVYLQMNSLKPEDTAVYYCATDWYYEYYDWGQGTQVTVSS | low polyreactivity
37 | QVQLGESGGGLVQAGGSLRLSCAASGRTLSYYAMGWYRPAPGNDRELVAAISGSAGSTYYADSVKGRFTISRDNAKNTVYLQMNSLKPEDTAVYYCAAYIYSYDEGYYWGQGTQVTVSS | high polyreactivity
38 | QVQLGESGGGLVQAGGSLRLSCAASGSIFGGNAMGWYRQAPGKERELVAAISTSGSTTYYADSVKGRFTISRDNAKNTVYLQMNSLKPEDTAVYYCARRGGVRGYYGGRRSKMDYWGQGTQVTVSS | low polyreactivity
39 | QVQLGESGGGLVQAGGSLRLSCAASGSTRGYTMGWYRQAPGKERELVAVISYSGGRTYYADSVKGRFTISRDNAKNTVYLQMNSLKPEDTAVYYCNAYYYQFRGIRVSGGYWGQGTQVTVSS | high polyreactivity
40 | QVQLGESGGGLVQAGGSLRLSCAPSGSPFPYYVMGWYRPAPGKERELVAAISKSGGSTYYADSVKGRFTISRDNAKNTVYLQMNSLKPEDPAVYYCAAAIRSYRGPRFNYWGQGTQVTVSS | high polyreactivity
41 | QVQLGESGGGLVQAGGSLRLSSAASGRTFGSNAMGWYRQAPGKERELVAASSSTVSTNYADSEKGRFTISRDNAKNTVYLQMNSLKPEDTAVYYCNVTRHYSYVSEYDYWGQGTQVTVSS | low polyreactivity
42 | QVQLGESGGGLVQAGGSLRLTCAASGSIFRYYAMGWYRQAPGKERELVAAIRWSGGRTYYADSVKGRFTISRDNAKNTVYLQMNSLKPEDTAVYDCAADPPHYKPNVRYYYWGQGTQVTVSS | high polyreactivity
43 | QVQLGESGGGLVQAGGSVRLSCAASGRTFDTNAMGWYRQAPGKERELVAAISWSAGRTYYADSVKGRFTISRDNAKNTVYLQMNSLKPEDTAVYYCAARPPFIAYSWQKHGYYWGQGTQVTVSS | low polyreactivity
